Reference: publication PMC3840377

Experiments:
alpha-thrombin [1] = target: T1, alpha-thrombin (UniProt P00734;P00734 328-363;364-622); experiment: flow cytometry, thrombin capture on CEM cells, T-15-biotin/SA-488 read-out
alpha-thrombin [2] = target: T1, alpha-thrombin; experiment: flow cytometry, sandwich on T27-AR-captured thrombin
streptavidin = streptavidin (UniProt P22629 25-183); experiment: flow cytometry, SA-488 capture on CEM cells
Sequence of streptavidin (P22629 25-183): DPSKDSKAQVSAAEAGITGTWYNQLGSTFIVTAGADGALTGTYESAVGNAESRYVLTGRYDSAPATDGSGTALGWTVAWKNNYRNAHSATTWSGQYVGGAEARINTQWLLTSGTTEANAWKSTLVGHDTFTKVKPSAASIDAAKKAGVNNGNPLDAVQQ

B1: T27-AR (ssDNA)
DNA: TTTTTTTGTCCGTGGTAGGGCAGGTTGGGGTGAC
modifications: 5' diacyllipid
alpha-thrombin [1]
  binding result: binds

B2: T-15 (ssDNA)
DNA: GGTTGGTGTGGTTGG
alpha-thrombin [2]
  binding result: binds

B3: SA-AR (ssDNA)
DNA: TTTTTTTATTGACCGCTGTGTGACGCAACACTCAAT
modifications: 5' diacyllipid
streptavidin
  binding result: binds
